Results on two molecules are retold here after patent publication EP0332424A2 (dated 1991).

For test [1], the target named is T1, human carcinoembryonic antigen (human, UniProt P06731 35-685, 125I label (125I-CEA, the tracer in the radioimmunoassay)).
T1 construct: Used as a 125I-labelled tracer; also called CEA
T1 sequence (looked up): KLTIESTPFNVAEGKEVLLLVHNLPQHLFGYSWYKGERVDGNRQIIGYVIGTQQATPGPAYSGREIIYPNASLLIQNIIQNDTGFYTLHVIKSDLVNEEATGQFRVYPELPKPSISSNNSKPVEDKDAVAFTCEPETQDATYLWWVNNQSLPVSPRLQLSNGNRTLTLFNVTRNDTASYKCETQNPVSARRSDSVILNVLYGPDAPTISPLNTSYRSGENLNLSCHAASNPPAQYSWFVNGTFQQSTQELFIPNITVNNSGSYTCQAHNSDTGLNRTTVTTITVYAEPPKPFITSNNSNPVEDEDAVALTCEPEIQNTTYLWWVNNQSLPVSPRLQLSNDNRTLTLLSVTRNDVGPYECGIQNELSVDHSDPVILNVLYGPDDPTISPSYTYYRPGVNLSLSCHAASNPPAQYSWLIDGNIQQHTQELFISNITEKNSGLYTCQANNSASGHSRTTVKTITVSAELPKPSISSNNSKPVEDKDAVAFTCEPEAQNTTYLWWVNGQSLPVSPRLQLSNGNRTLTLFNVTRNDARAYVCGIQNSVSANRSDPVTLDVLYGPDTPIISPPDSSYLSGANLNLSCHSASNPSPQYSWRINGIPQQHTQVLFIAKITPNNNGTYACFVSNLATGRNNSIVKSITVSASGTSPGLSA
Description: solid phase radioimmunoassay: culture supernatant, 125I-CEA, Sepharose-bound goat anti-human IgG.

Test [2] concerns the target T1, human carcinoembryonic antigen. Description: affinity comparison by radioimmunoassay and Scatchard analysis; Ka not given.

B1: chimeric antibody XCEM 449 (antibody, V domains shown)
VH: DVQLVESGGGLVQPGGSRKLSCAASGFTFSNFGMHWIRQAPEKGLEWVAYISGGSSTIYYADTVKGRFTISRDNPRNTLFLQMTSLRSEDTAMFYCARDYYANNYWYFDVWGAGTTVTVSS
VL: DIVMTQSQKFMSTSVGDRVSITCKASQNVRTAVAWYQQKPGQSPKALIYLASNRYTGVPDRFTGSGSGTDFTLTITNVQSEDLADYFCLQHWNYPLTFGAGTKLELKR
notes: the one-letter code is converted from the printed three-letter code; also called CEM-chimeric antibody; chimeric CEM antibody
Regarding B1, the binding result in test [1] is listed as “binds”.

B2: murine monoclonal antibody of hybridoma CEM 231.6.7 (antibody, V domains shown)
VH: B1 VH
VL: B1 VL
notes: also called murine antibody counterparts; ATCC HB9620
On to B2, for which the binding result in test [2] is given as “binds”.
